Assay results published in article PMC5582858, “The yeast kinesin-5 Cin8 interacts with the microtubule in a noncanonical manner” (The Journal of Biological Chemistry, 2017).

Columns and labels:
[1] = molecular target: Paclitaxel-stabilized microtubules (bovine brain αβ-tubulin) (bovine) (UniProt Q6B856)
[2] = molecular target: Paclitaxel-stabilized microtubules (bovine brain αβ-tubulin) (bovine) (UniProt Q6B856); experiment: co-sedimentation; 3 μM Cin8, 1 μM microtubules, no added nucleotide or 1 mM ATP, ADP or AMPPNP, low and high ionic strength; SDS-PAGE of supernatant and pellet

Cin8-His-Δ99 (Cin8 motor domain in which the 99-residue loop 8 insert is substituted with the 7-residue loop 8 of Kip1) (from UniProt P27895 70-535) (domain or fragment)
K0.5,MT of the microtubule-stimulated steady-state ATPase (NADH coupled assay), 21 mM ionic strength [1]: 1.3 µM
stoichiometry N [2]: 1.3
